From patent US20220073649A1 (MERUS N V, published 2022)

Key:
[1] = target: T1, human CXCR4 (human, UniProt P61073 1-352); assay: flow cytometry on human CXCR4
T1 construct: whole, on cells; Tested by flow cytometry; also called human C-X-C Motif Chemokine Receptor 4
Description: (§1) Fab phage libraries were panned on mouse CXCR4 lipoparticles. Clones were screened by lipoparticle ELISA. Binders were sequenced and grouped into families based on CDR3 homology. Fab from three VHCDR3 families were validated by flow cytometry using HEK293 cells expressing natively folded mouse CXCR4. These families were subsequently tested for binding to human CXCR4 by flow cytometry. The positive clones were recloned into IgG format according to standard methods. Three VHCDR3 families were identified that are crossreactive with human and mouse CXCR4. The amino acid sequences of the heavy chain variable region of the mouse and human CXCR4 binding antibodies are set forth in SEQ Nos: 31, 32 and 33.

[2] = target: T2, mouse CXCR4 (wildtype full length) (mouse, UniProt P70658 1-359); assay: flow cytometry, Fab on HEK293 cells expressing natively folded mouse CXCR4
T2 construct: Natively folded mouse CXCR4 expressed on HEK293 cells for flow cytometry
Description: as §1

[3] = target: T1, human CXCR4; assay: figure legend (flow cytometry of Example 10)
Description: as §1

[4] = target: T2, mouse CXCR4 (wildtype full length); assay: figure legend (flow cytometry of Example 10)
Description: as §1

T1 sequence (P61073 whole entry): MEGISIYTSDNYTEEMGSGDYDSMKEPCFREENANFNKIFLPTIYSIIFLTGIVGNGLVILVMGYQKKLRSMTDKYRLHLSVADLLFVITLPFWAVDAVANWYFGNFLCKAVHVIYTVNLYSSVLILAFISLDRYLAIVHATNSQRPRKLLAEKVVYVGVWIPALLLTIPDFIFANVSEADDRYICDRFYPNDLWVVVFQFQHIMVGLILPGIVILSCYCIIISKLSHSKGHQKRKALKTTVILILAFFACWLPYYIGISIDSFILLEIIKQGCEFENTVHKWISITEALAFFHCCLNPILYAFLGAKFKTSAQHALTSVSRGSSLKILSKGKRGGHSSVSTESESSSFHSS
T2 sequence (P70658 whole entry): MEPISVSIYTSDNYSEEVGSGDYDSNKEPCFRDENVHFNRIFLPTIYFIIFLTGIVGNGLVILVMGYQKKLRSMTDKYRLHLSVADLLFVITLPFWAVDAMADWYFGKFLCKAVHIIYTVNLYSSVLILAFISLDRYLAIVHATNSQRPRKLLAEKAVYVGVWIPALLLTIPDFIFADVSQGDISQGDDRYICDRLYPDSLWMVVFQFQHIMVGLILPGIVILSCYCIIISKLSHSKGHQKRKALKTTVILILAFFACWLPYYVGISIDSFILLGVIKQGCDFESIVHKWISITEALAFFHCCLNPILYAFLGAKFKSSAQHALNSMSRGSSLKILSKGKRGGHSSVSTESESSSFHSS

B1: CXCR4-1 (first chimeric Fab comprising a chicken VH paired with a human VL that binds to mouse and human CXCR4) (Fab, V domains shown)
VH: AVTLDESGGGLQTPGGALSLVCKASGFTFSSYRGMHWVRQAPGKGLEWVAGIYSSGSSTAYGAAVKGRATISRDDGQSTVRLQLNNLRAEDTGTYYCAKDAGSCWYGRRSGFNCDPYGGNIDAWGHGTEVIVSS
VL: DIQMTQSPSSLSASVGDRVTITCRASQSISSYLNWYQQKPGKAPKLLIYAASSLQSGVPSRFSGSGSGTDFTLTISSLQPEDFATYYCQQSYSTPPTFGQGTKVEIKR
notes: Positive clones were later recloned into IgG format; also called chicken VH-human VL Fab
binding result [1]: binds | binding result [2]: binds

B2: CXCR4-3 (third chimeric Fab comprising a chicken VH paired with a human VL that binds to mouse and human CXCR4) (Fab, V domains shown)
VH: AVTLDESGGGLQTPGGALSLVCKASGFSIGSYGMGWVRQAPGKGLEFVAGISTIGGVTWYGAAVKGRAIISRDNGQSTVRLQLNNLRAEDTGTYFCAKASDSPSCRYGSRSGWSCPGWNYGGRIDAWGHGTEVIVSS
VL: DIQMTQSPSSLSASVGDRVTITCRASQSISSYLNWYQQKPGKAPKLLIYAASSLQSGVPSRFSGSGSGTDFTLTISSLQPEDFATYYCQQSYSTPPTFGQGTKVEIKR
notes: as for B1
binding result [3]: binds | binding result [4]: binds

B3: CXCR4-2 (second chimeric Fab comprising a chicken VH paired with a human VL that binds to mouse and human CXCR4) (Fab, V domains shown)
VH: AVTLDESGGGLQTPGGALSLVCKASGFSFSSYDMSWVRQAPGKGLEWVAGIYSIGRDAGYGAAVKGRATISRDNGQSTVRLQLNNLRAEDTGTYYCAKESGSACRYAARHGYICAGYLGSIDAWGHGTEVIVSS
VL: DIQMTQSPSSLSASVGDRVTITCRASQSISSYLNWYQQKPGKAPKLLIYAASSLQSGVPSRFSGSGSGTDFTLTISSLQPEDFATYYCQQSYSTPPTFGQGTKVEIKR
notes: as for B1
binding result [3]: binds | binding result [2]: binds
